{
  "source": "patent US8926966B1",
  "about": "(Regents of the University of California, priority 1990, dated 2015)",
  "molecules": {"B1": {"name": "GAD65: rat GAD65 expressed in bacteria, ^35S-labeled, in bacterial lysate (protein, UniProt Q05683 1-585, looked up)", "Glutamate decarboxylase 2": "MASPGSGFWSFGSEDGSGDPENPGTARAWCQVAQKFTGGIGNKLCALLYGDSEKPAESGGSVTSRAATRKVACTCDQKPCSCPKGDVNYALLHATDLLPACEGERPTLAFLQDVMNILLQYVVKSFDRSTKVIDFHYPNELLQEYNWELADQPQNLEEILTHCQTTLKYAIKTGHPRYFNQLSTGLDMVGLAADWLTSTANTNMFTYEIAPVFVLLEYVTLKKMREIIGWPGGSGDGIFSPGGAISNMYAMLIARYKMFPEVKEKGMAAVPRLIAFTSEHSHFSLKKGAAALGIGTDSVILIKCDERGKMIPSDLERRILEVKQKGFVPFLVSATAGTTVYGAFDPLLAVADICKKYKIWMHVDAAWGGGLLMSRKHKWKLNGVERANSVTWNPHKMMGVPLQCSALLVREEGLMQSCNQMHASYLFQQDKHYDLSYDTGDKALQCGRHVDVFKLWLMWRAKGTTGFEAHIDKCLELAEYLYNIIKNREGYEMVFDGKPQHTNVCFWFVPPSLRVLEDNEERMSRLSKVAPVIKARMMEYGTTMVSYQPLGDKVNFFRMVISNPAATHQDIDFLIEEIERLGQDL", "modifications": "35S-labeled", "notes": "rat GAD65 expressed in bacteria, ^35S-labeled, in bacterial lysate"}},
  "key": {"[1]": {"tested_on": "NOD mice", "assay": "Insulitis score after tolerization of NOD mice", "assay_type": "in vivo, mouse", "settings": "examined at 12 weeks"}, "[2]": {"tested_on": "NOD mice", "description": "1. […] At 12 weeks of age, mice were examined for insulitis and autoantigen reactive T-cells. […] Pancreatic tissue sections were stained by immunoperoxidase techniques for insulin and were counterstained with hematoxylin. Insulitis was scored in a blinded manner by examining 54 to 87 islets on 5 interrupted tissue sections from each pancreas. Proliferative splenic T-cell responses induced by various antigens were performed as described above in Example 4. Data in Table 8 are expressed as the average [^3H]-thymidine label (cpm) incorporated in triplicate cultures."}, "[3]": {"tested_on": "spleen cells of NOD, BALB/c and (NOD/BALB/c) F1 mice", "settings": "<4 or >16 week old NOD or control BALB/c or (NOD/BALB/c) F1 spleen cells", "description": "Incorporation of label was measured by liquid scintillation counting."}, "[4]": {"tested_on": "NOD mice", "assay": "GAD immunization of 8 week old NOD mice, IDDM onset", "assay_type": "in vivo, mouse", "source_text": "Breeder mice were purchased from Taconic Farms and housed under specific pathogen-free conditions. Only female NOD mice were used in this study. […] Insulitis is generally observed beginning at 4 weeks of age. […] The incidence of IDDM in female mice is 70-90% by one year of age.\nUrine glucose levels were monitored twice weekly. After observing above normal glucose in urea, blood glucose levels were monitored twice weekly."}, "[5]": {"tested_on": "autoantibodies to GAD in patient sera", "assay": "Immunoprecipitation of ^35S-GAD65 / ^35S-GAD67 by sera drawn prior to IDDM onset", "assay_type": "binding, human", "set-up": "key to band intensity of immunoprecipitated ^35S-GAD: 1 = lowest; 2 = medium; 3 = highest band intensities", "description": "(§1) Islet cells were extracted as previously described by Atkinson, et al. (Lancet, 335:1357-1360, 1990) with the following modifications. […] The protein A Sepharose CL-4B was then boiled in Laemmli sample buffer (Laemmli, Nature, 227:680-685, 1970), and the samples were subjected to SDS-PAGE and fluororadiography (Kodak, X-omat AR5) using Enhance (New England Nuclear). Alternatively, the autoradiographs were analyzed by a BETAGEN (Boston, Mass.) analyzer. Both 64KA positive and negative sera were used in each assay, to serve as interassay controls. All fluororadiographs were analyzed and rated as positive or negative after comparison with the known interassay controls. […] A similar rating procedure was employed for the intensity of bands corresponding to immunoprecipitated ^35S-GAD65 and ^35S-GAD67.\nRat GAD65 and GAD67 cDNAs were subcloned into a bacterial expression system as previously described. Labeling of ^35S-GADs was completed by pulsing IPTG induced bacterium (growing in Minimal Media) for 15 minutes with TRAN ^35S-label (ICN). Cultures were then spun down and resuspended and sonicated in 1 ml of homogenizing buffer (1 mM phenylmethylsulfonyl fluoride (PMSF), 1 mM 2-aminoethylisothiouronium Bromide (AET) and 60 mM potassium phosphate, pH 7.1). After sonication, cell debris was removed by centrifugation and protein concentration was measured (Bradford, Anal. Biochem., 72:248, […]) in the supernatant (supernatant was stored in aliquots at −70° C.)."}, "[6]": {"tested_on": "autoantibodies to the 64 kD autoantigen", "assay": "Prior absorption of IDDM serum, recognition of 64 kD pancreatic polypeptide", "assay_type": "binding", "settings": "human pancreatic islet cell lysate", "description": "as §1\nPrior absorption of these sera with GAD-6 monoclonal, which recognized GAD65 but not GAD67, or with bacterially produced GAD65, abolished the ability of the sera to recognize the 64 kD pancreatic polypeptide. […] In order to investigate the predictive value of GAD65, sera drawn from patients prior to onset of clinical manifestation of IDDM were tested for autoantibodies to GAD65."}},
  "data": [
    {"molecule": "glutamic acid decarboxylase [GAD]", "values": [
      {"measurement": "insulitis score of the completely tolerized mice", "setting": "[1]; NOD mice, 50 μg i.v. at 3 weeks", "value": 0.0},
      {"measurement": "Insultis Score", "setting": "[1]; Table 8A: female NOD mice, i.v. at 3 weeks of age, 50 μg (hsp-p 0.1 μg) in PBS, scale 0-4, mean ± SE", "value": "0.1 ± 0.1"},
      {"measurement": "glucose levels of treated mice", "setting": "[2]; all treated mice, n=17, presently 37 weeks old", "value": "normal glucose levels"},
      {"measurement": "insulitis at 30 weeks of age", "setting": "[2]; five treated mice sacrificed at 30 weeks, one had very limited peri-insulitis", "value": "four mice were completely free of insulitis"},
      {"measurement": "T cell proliferation", "setting": "[3]", "value": "did not induce T cell proliferation"},
      {"measurement": "significance of delay of diabetes versus β-gal immunized mice", "setting": "[4]; 25 ug i.p. in IFA at 8 weeks, again every 6 weeks", "value": "< 0.02"},
      {"measurement": "onset of IDDM compared to control β-gal immunized mice", "setting": "[4]; FIG. 11", "value": "clear delay in the onset of IDDM"},
      {"measurement": "immunized mice with no signs of hyperglycemia until 36 weeks in age", "setting": "[4]; of 10 mice, 25 ug i.p. in IFA at 8 weeks, again every 6 weeks", "value": 8}
    ]},
    {"molecule": "B1", "values": [
      {"measurement": "specimens immunoreactive", "setting": "[5]; 9 out of 12 sera drawn prior to IDDM onset", "value": 75, "unit": "%"},
      {"measurement": "band intensity of immunoprecipitated ^35S-GAD", "setting": "[5]; serum of patient eight, drawn 8 months before IDDM onset", "value": 0},
      {"measurement": "band intensity of immunoprecipitated ^35S-GAD", "setting": "[5]; serum of patient eleven, drawn 10 months before IDDM onset", "value": 1},
      {"measurement": "band intensity of immunoprecipitated ^35S-GAD", "setting": "[5]; serum of patient five, drawn 34 months before IDDM onset", "value": 1},
      {"measurement": "band intensity of immunoprecipitated ^35S-GAD", "setting": "[5]; serum of patient nine, drawn 42 months before IDDM onset", "value": 1},
      {"measurement": "band intensity of immunoprecipitated ^35S-GAD", "setting": "[5]; serum of patient one, drawn 9 months before IDDM onset", "value": 1},
      {"measurement": "band intensity of immunoprecipitated ^35S-GAD", "setting": "[5]; serum of patient seven, drawn 3 months before IDDM onset", "value": 0},
      {"measurement": "band intensity of immunoprecipitated ^35S-GAD", "setting": "[5]; serum of patient six, drawn 11 months before IDDM onset", "value": 0},
      {"measurement": "band intensity of immunoprecipitated ^35S-GAD", "setting": "[5]; serum of patient ten, drawn 25 months before IDDM onset", "value": 1},
      {"measurement": "band intensity of immunoprecipitated ^35S-GAD", "setting": "[5]; serum of patient three, drawn 14 months before IDDM onset", "value": 2},
      {"measurement": "band intensity of immunoprecipitated ^35S-GAD", "setting": "[5]; serum of patient twelve, drawn 4 months before IDDM onset", "value": 1},
      {"measurement": "band intensity of immunoprecipitated ^35S-GAD", "setting": "[5]; serum of patient two, drawn 6 months before IDDM onset", "value": 3},
      {"measurement": "band intensity of immunoprecipitated ^35S-GAD", "setting": "[5]; serum of patient, drawn 66 months before IDDM onset", "value": 1},
      {"measurement": "ability of patient four sera to recognize the 64 kD pancreatic polypeptide after prior absorption", "setting": "[6]", "value": "abolished"}
    ]}
  ]
}
